Source: patent publication US10456446B2, “Use of human small leucine zipper protein in osteogenesis procedure” (Korea University Research and Business Foundation, priority 2013, dated 2019)

Columns and labels:
PPARγ2 = target: T1, PPARγ2 (Homo sapiens, UniProt P37231); assay: Fluorescence microscopy, subcellular localization with PPARγ2 in C3H10T1/2 cells; format: cell-based; details: GFP-PPARγ2 and Flag-sLZIP in C3H10T1/2 cells
T1 construct: expressed in transfected cells; host or cells: 293T
T1 sequence (P37231 1-505): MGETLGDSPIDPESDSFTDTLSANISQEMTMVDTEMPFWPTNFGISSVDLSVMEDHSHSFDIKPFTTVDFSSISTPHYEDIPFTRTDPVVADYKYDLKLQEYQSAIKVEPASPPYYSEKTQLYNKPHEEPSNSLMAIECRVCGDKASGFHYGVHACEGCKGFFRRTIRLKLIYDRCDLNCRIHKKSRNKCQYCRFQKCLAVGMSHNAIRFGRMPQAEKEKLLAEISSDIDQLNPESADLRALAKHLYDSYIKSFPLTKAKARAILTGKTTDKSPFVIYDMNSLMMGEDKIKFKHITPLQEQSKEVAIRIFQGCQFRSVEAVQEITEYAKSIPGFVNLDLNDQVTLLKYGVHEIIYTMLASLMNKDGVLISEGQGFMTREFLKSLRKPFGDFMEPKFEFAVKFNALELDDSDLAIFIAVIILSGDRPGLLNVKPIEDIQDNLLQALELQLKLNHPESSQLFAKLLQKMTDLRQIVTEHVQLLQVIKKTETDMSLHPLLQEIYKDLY
Protocol: C3H10T1/2 cells were transiently ci-transfected with Flag-sLZIP, GFP-PPARγ2 or GFP-sLZIP, and HDAC3 was grown on cover slip. After 24 hours, the cells were fixed with 4% paraformaldehyde for 10 minutes and permeabilized 0.2% Triton-X 100 for 5 minutes. The cells were incubated with 1% BSA for one hour, and then incubated with anti-Flag and anti-HDAC3 antibodies overnight at 4° C. The cells were washed with PBS, and then were incubated with Texas Red-labeled antibodies for 2 hours. A cover slide was washed with PBS, and mounted on and examined using a LSM 510 META confocal microscopy (Carl Zeiss, Jena, Germany).
In order to examine whether the transcriptional activity of PPARγ2 is regulated by interaction with sLZIP, interaction between sLZIP and PPARγ2 was examined. For this purpose, 293T cells were transfected with GST-sLZIP and Myc-PPARγ2. Cell lysates were obtained and GST pull-down analysis was performed using a glutathione 4B bead. A protein complex was analyzed in SDS-PAGE and then immunoblotted with specific antibodies (FIG. 2A). […] Proteins bound to the bead were analyzed in SDS-PAGE, and then immunoblotted with anti-PPARγ2 and anti-His antibodies (FIG. 2C). GFP-PPARγ2 and Flag-sLZIP constructs were expressed in C3H10T1/2 cells, and analyzed using mouse anti-Flag and Texas Red-labeled anti-mouse antibodies under a fluorescence microscope. […]

HDAC3 = target: T2, HDAC3 (Homo sapiens, UniProt O15379); assay: HDAC3 ubiquitination, GST pull-down with Ha-UB in 293T cells; format: cell-based; details: ligand treated (10 nM RZD, 24 hours)
T2 construct: expressed in transfected cells; host or cells: 293T
Protocol: Therefore, in order to understand a regulation mechanism of sLZIP in the PPARγ2 transcriptional activity by binding to the FABP4 promoter region, an effect of sLZIP on the interaction between PPARγ2 and HDAC3 was examined. For this purpose, 293T cells were transfected with GST-HDAC3, Myc-PPARγ2 and Flag-sLZIP, and were treated or not treated with 10 nM of RZD for 24 hours. Cell lysates were subjected to GST pull-down analysis using a glutathione 4B bead, and a protein complex was analyzed in SDS-PAGE, and then immunoblotted with anti-GST, anti-Myc and anti-Flag antibodies (FIG. 6A). GST-HDAC3, GST-PPARγ2, Myc-PPARγ2, Flag-sLZIP and Ha-UB were expressed in the 293T cells, and the cells were treated with 10 nM of RZD for 24 hours. Cell lysates were subjected to GST pull-down analysis (FIG. 6B). GST-PPARγ2 and Flag-sLZIP were expressed in the 293T cells and treated with 10 nM of RZD for 24 hours. Cell lysates were subjected to GST pull-down analysis, and a protein complex was analyzed in SDS-PAGE, and then immunoblotted with anti-PGC1α, anti-GST and anti-Flag antibodies (FIG. 6C).

sLZIP TG mouse embryos = assay: Ossification in vivo, alcian blue and alizarin red staining of sLZIP TG mouse embryos on E17.5; details: E17.5, compared with wild type littermate
Text: In order to generate human sLZIP transgenic (TG) mice, sLZIP genes were cloned into a pCMV-flag expression vector. The sLZIP TG mice were generated by Macrogen, Inc (Seoul, Korea). Transgenic founders were mated with wild type C57BL/6 mice to produce F1 heterozygotes. F1-F4 generations were genetically screened for transgenes at an age of 2 weeks old. The following two primers were used to amplify genomic DNA in order to identify wild type and TG mice: 5′-GGACGATGATGACAAGGACT-3′ (SEQ ID NO: 25) and 5′-GTCAGAGGAGTACATGCTGCT-3′(SEQ ID NO: 26).
Therefore, in order to characterize a potential role of sLZIP in the transcriptional activity of Runx2 by inhibiting the transcriptional activity of PPARγ2, the transcriptional activity of Runx2 was examined. For this purpose, 293T cells were temporarily transfected with Runx2 (0.5 μg), β-galactosidase (0.1 μg), 6 copies of Runx2 response elements (0.2 μg) and sLZIP at different contents (0.1 μg to 0.5 μg) (FIG. 7A). PPARγ2 (0.5 μg), β-galactosidase, Runx2, 6 copies of Runx2 response elements and sLZIP (0.5 μg) were expressed in the 293T cells (FIG. 7B). 293T cells were temporarily transfected with HDAC3 (0.5 μg), Runx2, β-galactosidase, 6 copies of Runx2 response elements and sLZIP at different contents (0.25 and 0.5 μg) (FIG. 7C). A promoter activity was measured by luciferase analysis. […]

T2 sequence (O15379 whole entry, species assumed): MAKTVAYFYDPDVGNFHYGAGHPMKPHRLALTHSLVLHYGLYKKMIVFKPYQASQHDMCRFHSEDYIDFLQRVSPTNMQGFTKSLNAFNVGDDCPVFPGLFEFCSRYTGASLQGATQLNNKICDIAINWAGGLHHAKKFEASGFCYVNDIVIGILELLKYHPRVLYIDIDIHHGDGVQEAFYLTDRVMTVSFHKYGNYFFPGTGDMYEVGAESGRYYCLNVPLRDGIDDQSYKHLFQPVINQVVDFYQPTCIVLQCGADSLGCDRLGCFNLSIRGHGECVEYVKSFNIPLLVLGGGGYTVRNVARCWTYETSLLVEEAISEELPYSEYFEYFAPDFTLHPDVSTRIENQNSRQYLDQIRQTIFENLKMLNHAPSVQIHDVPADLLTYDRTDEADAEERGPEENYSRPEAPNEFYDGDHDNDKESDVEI

B1: sLZIP: human small leucine-zipper protein, isoform of LZIP, 354 amino acids, no transmembrane domain, GenBank FJ263669, SEQ ID NO: 1 (protein, listed as Homo sapiens)
chain: MELELDAGDQDLLAFLLEESGDLGTAPDEAVRAPLDWALPLSEVPSDWEVDDLLCSLLSPPASLNILSSSNPCLVHHDHTYSLPRETVSMDLESESCRKEGTQMTPQHMEELAEQEIARLVLTDEEKSLLEKEGLILPETLPLTKTEEQILKRVRRKIRNKRSAQESRRKKKVYVGGLESRVLKYTAQNMELQNKVQLLEEQNLSLLDQLRKLQAMVIEISNKTSSSSMYSSDTRGSLPAEHGVLSRQLRALPSEDPYQLELPALQSEVPKDSTHQWLDGSDCVLQAPGNTSCLLHYMPQAPSAEPPLEWPFPDLFSEPLCRGPILPLQANLTRKGGWLPTGSPSVILQDRYSG
PPARγ2
  subcellular localization of sLZIP and PPARγ2: localized in the nucleus together with PPARγ2
HDAC3
  HDAC3 ubiquitination: inhibited HDAC3 ubiquitination
sLZIP TG mouse embryos
  ossification of skull and limb: further promoted ossification
